The record followed here is article PMC3501574.

The term Kd denotes the concentration at which binding is half-saturated. Higher therefore signals lower affinity.

The assay has as its target Biotinylated IL-2Rβ (human) (UniProt P14784). Description: SPR.

With IL-15 (1–114) (ligand), the Kd was 0.438 µM.
Substance “IL-15—IL-15Rα complex (IL-15 co-expressed with IL-15Rα (1–64))” had a Kd of 0.003 µM.
